The target in test [1] is T1, human IL-17A (human, UniProt Q16552 24-155).
T1 construct: Purified recombinant; biotinylated in the ELISA; also called HuIL-17A; Hu IL-17A
Kind of test: SPR Biacore, captured binder. In general terms: In SPR one partner is held on a chip, and binding of the other changes the refractive index at the surface.
T1 sequence (Q16552 24-155 limits assumed): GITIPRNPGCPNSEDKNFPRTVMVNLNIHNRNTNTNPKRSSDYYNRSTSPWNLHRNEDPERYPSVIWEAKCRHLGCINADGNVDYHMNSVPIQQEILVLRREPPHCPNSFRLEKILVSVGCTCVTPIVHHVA
Experimental: (§1) The binding of antibodies to purified recombinant human, cyno, rat, mouse, rabbit IL-17 and human IL-17A/F were determined by surface plasmon resonance-based measurements with a Biacore® 3000 instrument (Biacore® AB, Uppsala, Sweden) using running HBS-EP (10 mM HEPES [pH 7.4], 150 mM NaCl, 3 mM EDTA, and 0.005% surfactant P20) at 25° C. […] Approximately 5000 RU of goat anti-mouse or anti-human IgG (Fcγ) fragment specific polyclonal antibody (Pierce Biotechnology Inc, Rockford, Ill.) diluted in 10 mM sodium acetate (pH 4.5) was directly immobilized across a CM5 research grade biosensor chip using a standard amine coupling kit according to manufacturer's instructions and procedures at 25 μg/ml. Unreacted moieties on the biosensor surface were blocked with ethanolamine. Modified carboxymethyl dextran surface in flowcell 2 and 4 was used as a reaction surface. Unmodified carboxymethyl dextran without goat anti-mouse or anti-human IgG in flow cell 1 and 3 was used as the reference surface. For kinetic analysis, rate equations derived from the 1:1 Langmuir binding model were fitted simultaneously to association and dissociation phases of all eight injections (using global fit analysis) with the use of Biaevaluation 4.0.1 software. Purified antibodies were diluted in HEPES-buffered saline for capture across goat anti-mouse or anti-human IgG specific reaction surfaces. Antibodies to be captured as a ligand (25 μg/ml) were injected over reaction matrices at a flow rate of 5 μl/min. The association and dissociation rate constants, kon (unit M-1s-1) and koff (unit s-1) were determined under a continuous flow rate of 25 μl/min. Rate constants were derived by making kinetic binding measurements at ten different antigen concentrations ranging from 10 nM to 200 nM. The equilibrium dissociation constant (unit M) of the reaction between antibodies and recombinant purified IL-17 antigens was then calculated from the kinetic rate constants by the following formula: KD=koff/kon. Binding was recorded as a function of time and kinetic rate constants are calculated. In this assay, on-rates as fast as 10⁶ M⁻¹ s⁻¹ and off-rates as slow as 10⁻⁶ s⁻¹ can be measured.

The target of a further test is T2, human IL-17A/F (human, UniProt Q16552 24-155; Q96PD4 31-163).
T2 construct: Heterodimer of IL-17A and IL-17F, purified recombinant; also called HuIL-17A/F; Hu IL-17A/F
T2 sequence (Q16552 24-155 limits assumed, chain 1 of 2): as the sequence (Q16552 24-155 limits assumed) above
T2 sequence (Q96PD4 31-163 limits assumed, chain 2 of 2): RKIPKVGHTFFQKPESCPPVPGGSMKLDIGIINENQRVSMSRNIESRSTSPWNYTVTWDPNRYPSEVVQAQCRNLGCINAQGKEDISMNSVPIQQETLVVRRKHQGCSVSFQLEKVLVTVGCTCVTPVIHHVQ
As to the kind of experiment: SPR Biacore, captured binder.

Another test addresses cyno IL-17A (cynomolgus monkey, UniProt A0A2K5TTB0 24-155). Kind of test: SPR Biacore, captured binder.
Test [2] addresses T3, human IL-17A (human, UniProt Q16552 24-155).
T3 construct: Recombinant; biotinylated in the ELISA; also called hIL-17; hIL17A
Kind of test: hIL17A ELISA.
T3 sequence (Q16552 24-155): as the sequence (Q16552 24-155 limits assumed) above

Substitutions are numbered along the chain they refer to.

Chain of cyno IL-17A (A0A2K5TTB0 entry or part of it): as the sequence (Q16552 24-155 limits assumed) above, with T3A, P8S, N34S, I77V, N78K, P104R counted along it
Experimental for cyno IL-17A: as §1
Experimental for human IL-17A/F: as §1

B1: IL17-TN-L7-G9 (antibody, V domains shown)
VH: EVQLLESGGGVVQPGRSLRLSCAASGFIFSNYGMHWVRQAPGKGLEWVAVISYDGSNKYYADSVKGRFTISRDNSKNTLYLEMNSLRPEDTAVYYCAKVGASGDYYYSYGLDVWGQGTTVTVSS
VL: QSGLTQPPSASGTPGQTVSISCSGSNSNIGSHSVNWYQQVPGAAPKLLMYGIGQRPSGVPDRFSVSQSGTSASLAISGLQSEDEADYYCATWDDSLGGYVFGSGTKVTVLG
notes: Fully human antibody
B1: in the test with human IL-17A [1], binding was characterised by a dissociation constant (Kd) of 280 pM; the koff (as a rule, the first-order rate constant of dissociation) is 8.65e-05 s⁻¹; the kon (commonly the second-order rate constant of association) was found to be 309000 M⁻¹ s⁻¹. Moreover, in the test with human IL-17A/F, the affinity, expressed as Kd, was 907 pM; the koff is 9.7e-05 s⁻¹; the kon was 107000 M⁻¹ s⁻¹. In the test with cyno IL-17A, the affinity, expressed as Kd, was 2070 pM; the off-rate (koff) came out at 0.000199 s⁻¹; the kon stood at 96000 M⁻¹ s⁻¹.

B2: IL17-G9-M1 (antibody, V domains shown)
VH: B1 VH with S56G, N57Y, V99L, G100S, A101L, L111F, V113G
VL: B1 VL with G3V, N26K, S33Y, N35H, G51D, I52F, V65G, A90G, S95W, S103T
Consider B2, for which, in the test with human IL-17A [1], the affinity, expressed as Kd, was 3.22 pM; the koff is 1e-06 s⁻¹; the kon turned out to be 311000 M⁻¹ s⁻¹. Moreover, in the test with human IL-17A/F, binding was characterised by a dissociation constant (Kd) of 244 pM, the koff came out at 3.95e-05 s⁻¹ and the kon was found to be 162000 M⁻¹ s⁻¹. In addition, in the test with cyno IL-17A, the Kd (in general, the equilibrium constant for the complex coming apart) worked out at 2.65 pM; the koff came to 1e-06 s⁻¹; the kon was 377000 M⁻¹ s⁻¹.

B3: IL17-G9-1 (antibody, V domains shown)
VH: B1 VH
VL: QSVLTQPPSASGTPGQTVSISCSGSHSNIGRHPVDWYQQVPGAAPKLLMYYGGYRPSGVPDRFSGSQSGTSASLAISGLQSEDEADYYCATWDDRLVGYVFGSGTKVTVLG
In the test with human IL-17A [1], B3 returned a Kd of 25.7 pM, a koff of 1.05e-05 s⁻¹ and a kon of 408000 M⁻¹ s⁻¹. For the same molecule, in the test with human IL-17A/F, the Kd was 3.13 pM, the koff amounted to 1e-06 s⁻¹ and the kon turned out to be 320000 M⁻¹ s⁻¹. In the test with cyno IL-17A, this molecule came in with a Kd of 2.96 pM, a koff of 1e-06 s⁻¹ and a kon of 338000 M⁻¹ s⁻¹.

B4: IL17-G9-4 (antibody, V domains shown)
VH: B1 VH
VL: B3 VL with S25R, H26Q, P33Y, G52D, G53S, Y54I, R95S, V97G
notes: converted into IgG
Consider B4, for which the Kd in the test with human IL-17A [1] stood at 4.69 pM; with human IL-17A/F, 4.24 pM; with cyno IL-17A, 3.77 pM. The koff in the test with human IL-17A [1], in the test with human IL-17A/F and with cyno IL-17A was 1e-06 s⁻¹ in each case. Also, the values for the kon with human IL-17A [1], with human IL-17A/F and with cyno IL-17A were 213000 M⁻¹ s⁻¹, 236000 M⁻¹ s⁻¹ and 265000 M⁻¹ s⁻¹, respectively.

B5: IL17-G9-M2 (antibody, V domains shown)
VH: B1 VH
VL: QSVLTQPPSASGTPGQTVSISCSGHNSNIGYHYVHWYQQVPGAAPKLLIYGDGWRPSGVPDRFSGSQSGTSASLAISGLQSEDEADYYCGTWDDWLGGYVFGTGTKVTVLG
notes: converted into IgG
Consider B5, for which, in the test with human IL-17A [1], binding was characterised by a dissociation constant (Kd) of 8.26 pM, the koff came to 2.32e-06 s⁻¹ and the kon turned out to be 281000 M⁻¹ s⁻¹. In the test with human IL-17A/F, the Kd stood at 10.3 pM, the koff is 1.41e-06 s⁻¹ and the kon came out at 137000 M⁻¹ s⁻¹. Further, in the test with cyno IL-17A, the Kd was less than 2.45 pM, the koff is less than 1e-06 s⁻¹ and the kon was found to be 408000 M⁻¹ s⁻¹.

B6: IL17-G9-2 (antibody, V domains shown)
VH: B1 VH with S30R
VL: B3 VL with H26N, M49I, G52D, G53D, Y54Q, R95S, V97G
For the molecule B6, in the test with human IL-17A [1], the Kd is less than 4.33 pM, the koff is less than 1e-06 s⁻¹ and the association rate constant (kon) was determined as 231000 M⁻¹ s⁻¹. In addition, in the test with human IL-17A/F, the Kd was 437 pM, the koff is 8.66e-05 s⁻¹ and the kon came out at 198000 M⁻¹ s⁻¹. Besides, in the test with cyno IL-17A, the Kd is less than 2.7 pM, the koff is less than 1e-06 s⁻¹ and the kon was found to be 371000 M⁻¹ s⁻¹.

B7: IL17-h5C5.1 (antibody, V domains shown)
VH: QVQLQQSGAELVRPGASVKLSCKALGYTFTDYEFHWVKQTPVHGLEWIGVIHPGNGGTAYNQNFRDKATLTADKSSSTAYMELSSLTSEDSGVYYCTRFLTYEGYFDYWGQGTALTVSS
VL: NIVMTQTPKFLLVSPGDRVTITCKASQSVSIDVGWFQQKPGQSPKLLIYHASNRYTGVPDRFTGSGYGTDFTFTVNTVQAEDLAVYFCQQDYSSPYTFGGGTKLELKR
notes: IgG; constant regions not specified
Take B7: in the test with human IL-17A [2], the EC50 – broadly, the concentration at which the effect is half-maximal – is 1000 pM.

B8: IL17-h5C5.7 (antibody, V domains shown)
VH: B7 VH
VL: DIQMTQSPSSLSASVGDRVTITCKASQSVSIDVGWFQQKPGKSPKLLIYHASNRYTGVPSRFSGSGSGTDFTFTISSLQPEDFATYFCQQDYSSPYTFGQGTKLEIKR
notes: as for B7
In the case of B8, the response with human IL-17A [2] was half-maximal at 30 pM (EC50). This EC50 is about 33-fold lower than that of the molecule before.

B9: IL17-h5C5.16 (antibody, V domains shown)
VH: B7 VH
VL: B8 VL with D1N, Q3V
notes: as for B7
B9 registered an EC50 with human IL-17A [2] of 20 pM.

B10: IL17-h10F7.5 (antibody, V domains shown)
VH: EVQLVQSGAEVKKPGSSVKVSCKASGYTFTDYEIHWVRQAPGQGLEWMGVNDPESGGTFYNQKFDGRVTITADKSTSTAYMELSSLRSEDTAVYYCARYYRYESFYGMDYWGQGTTVTVSS
VL: DIQLTQSPSSLSASVGDRVTITCSASSSISYIYWFQQKPGKSPKRWIYATFELASGVPSRFSGSGSGTDYTLTISSLQPEDFATYYCHQRSSYPWTFGQGTKLEIKR
notes: as for B7
Consider B10, for which the EC50 in the test with human IL-17A [2] was determined as 60 pM.

B11: IL17-h10F7.10 (antibody, V domains shown)
VH: B10 VH
VL: EIVLTQSPDFQSVTPKEKVTITCSASSSISYIYWFQQKPDQSPKRWIYATFELASGVPSRFSGSGSGTDYTLTINSLEAEDAATYYCHQRSSYPWTFGQGTKLEIKR
notes: as for B7
As to B11, the EC50 with human IL-17A [2] was 40 pM.

B12: IL17-h10F7.1 (antibody, V domains shown)
VH: B10 VH with M48I, V68A, I70L, A97T
VL: QIVLTQSPAIMSASPGEKVTMTCSASSSISYIYWFQQKPGTSPKRWIYATFELASGVPARFSGSGSGTSYSLTISSMEAEDAATYYCHQRSSYPWTFGGGSKLEIKR
notes: Cloned into IgG expression vectors; constant regions not specified
In the test with human IL-17A [2], B12 registered an EC50 of 1700 pM.

B13: IL17-h10F7.14 (antibody, V domains shown)
VH: B10 VH
VL: B10 VL with D1E, Q3V
notes: as for B7
As for B13, the EC50 in the test with human IL-17A [2] was 130 pM.

B14: IL17-h10F7.3 (antibody, V domains shown)
VH: B10 VH with M48I, V68A, I70L, A97T
VL: B10 VL with L4M, F35Y, S42A, W46L, Y70F
notes: as for B7
Take B14: the midpoint of the response in the test with human IL-17A [2], the EC50, lay at 50 pM. This EC50 is about 2.6-fold lower than that of the molecule before.

B15: IL17-h10F7.12 (antibody, V domains shown)
VH: B10 VH
VL: B10 VL with D1Q, Q3V
notes: as for B7
B15 had an EC50 in the test with human IL-17A [2] of 140 pM.

B16: IL17-h10F7.7 (antibody, V domains shown)
VH: B10 VH
VL: B11 VL with F35Y, R45L, W46L, Y48K, Y70F
notes: as for B7
Consider B16, for which a half-maximal response with human IL-17A [2] (EC50) required 50 pM.

B17: IL17-h10F7.16 (antibody, V domains shown)
VH: B10 VH
VL: B11 VL with E1Q
notes: as for B7
As to B17, in the test with human IL-17A [2], the EC50 turned out to be 90 pM.

B18: IL17-h10F7.8 (antibody, V domains shown)
VH: B10 VH with M48I, V68A, I70L, A97T
VL: B11 VL with F35Y, R45L, W46L, Y48K, Y70F
notes: as for B7
Regarding B18, in the test with human IL-17A [2], a half-maximal response (EC50) required 3900 pM.

B19: IL17-h5C5.12 (antibody, V domains shown)
VH: EVQLVQSGAEVKKPGASVKVSCKASGYTFTDYEFHWVRQAPGQGLEWIGVIHPGNGGTAYNQNFRDRATLTADKSTSTAYMELSSLRSEDTAVYYCTRFLTYEGYFDYWGQGTLVTVSS
VL: EIVMTQSPATLSVSPGERATLSCKASQSVSIDVGWYQQKPGQAPRLLIYHASNRYTGIPARFSGSGSGTDFTLTISSLQPEDFAVYYCQQDYSSPYTFGQGTKLEIKR
notes: as for B7
In turn, B19 registered an EC50 with human IL-17A [2] of 230 pM.

B20: IL17-h5C5.13 (antibody, V domains shown)
VH: B7 VH
VL: B19 VL with Y36F, A43S, I58V, Y87F
notes: as for B7
Regarding B20, the concentration giving a half-maximal response (EC50) in the test with human IL-17A [2] amounted to 30 pM.

B21: IL17-h5C5.6 (antibody, V domains shown)
VH: B19 VH
VL: B8 VL with F36Y, S43A, F87Y
notes: as for B7
As for B21, a half-maximal response with human IL-17A [2] (EC50) required 110 pM.

B22: IL17-h5C5.10 (antibody, V domains shown)
VH: B7 VH
VL: B19 VL
notes: as for B7
In the case of B22, in the test with human IL-17A [2], the EC50 came to 50 pM.

B23: IL17-h5C5.5 (antibody, V domains shown)
VH: B19 VH with I48M, A68V, L70I, T97A
VL: B8 VL with F36Y, S43A, F87Y
notes: as for B7
Regarding B23, in the test with human IL-17A [2], the response was half-maximal at 50 pM (EC50).

B24: IL17-h5C5.17 (antibody, V domains shown)
VH: B19 VH with I48M, A68V, L70I, T97A
VL: B8 VL with D1N, Q3V
notes: as for B7
As to B24, the EC50 with human IL-17A [2] stood at 30 pM.

The record behind these values is patent US20140348834A1 (published 2014).
